No end group written: not given here.
Biological target: T1, recombinant MCL1 (human, UniProt Q07820 1-350)
T1 construct: MCL1, human; Uniformly 15N-labelled for NMR; also called 15N MCL1; source: E. coli BL21 (DE3), purified (nickel chromatography, gel filtration)
Assay: fluorescence polarisation; competitive FPA: 50 nM recombinant MCL1, 10 nM F-BAK, titration of unlabeled p73 peptide or p73DBD, 1× PBS pH 7.4
Conditions: both partners purified

T1 sequence (Q07820 whole entry): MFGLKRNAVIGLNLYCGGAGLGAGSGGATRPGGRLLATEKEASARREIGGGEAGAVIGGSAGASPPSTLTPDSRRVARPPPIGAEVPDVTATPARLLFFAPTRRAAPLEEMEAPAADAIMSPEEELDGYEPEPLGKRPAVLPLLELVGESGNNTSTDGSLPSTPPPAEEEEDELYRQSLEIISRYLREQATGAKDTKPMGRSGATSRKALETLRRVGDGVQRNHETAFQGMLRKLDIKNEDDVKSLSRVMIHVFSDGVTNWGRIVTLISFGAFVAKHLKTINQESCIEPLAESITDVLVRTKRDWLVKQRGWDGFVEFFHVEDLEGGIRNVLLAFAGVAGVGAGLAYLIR

Binder | IC50
PQPLVDSYRQQQQLLQR [p73TD-derived peptide α2] | > 10 µM
DEDTYYLQVRG-NH2 [p73TD-derived peptide β1] | > 10 µM
